4 molecules from CN111423515A (BETA PHARMA INC, dated 2020) can be followed below.

The target of experiment [1] is T1, human CD47 on cells (CHO-K1/hCD47; human red blood cells RBC) (human, UniProt Q08722 19-323).
T1 construct: whole, on cells; also called CHO-K1/human CD47; 红细胞
Briefly: flow cytometry, RBC mixed 20:1 with Raji, 10 μg/mL.

The target in experiment [2] is T2, human CD20 on cells (CHO-K1/CD20) (human, UniProt P11836 1-297).
T2 construct: whole, on cells; also called CHO-K1/hCD20; CHO-K1/human CD20
T2 sequence (looked up): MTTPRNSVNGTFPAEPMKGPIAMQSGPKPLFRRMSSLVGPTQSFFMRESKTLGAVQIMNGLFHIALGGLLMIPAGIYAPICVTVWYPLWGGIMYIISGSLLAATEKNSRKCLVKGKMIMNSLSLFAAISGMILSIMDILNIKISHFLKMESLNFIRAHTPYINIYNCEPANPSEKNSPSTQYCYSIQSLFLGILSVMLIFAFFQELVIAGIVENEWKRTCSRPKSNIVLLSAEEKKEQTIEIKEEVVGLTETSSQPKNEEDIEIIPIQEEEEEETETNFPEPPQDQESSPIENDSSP
Briefly: flow cytometry on CHO-K1/CD20 cells. (A flow cytometer gives signals particle by particle.)

Another experiment addresses T3, hCD47-his (human, UniProt Q08722 19-139).
T3 construct: Bought protein coated on the ELISA plate; also called Cat#CD7-H5227; not shown: his tag
Briefly: ELISA, hCD47-his coated. A general note: ELISA stands for enzyme-linked immunosorbent assay.

T1 sequence (Q08722 19-323): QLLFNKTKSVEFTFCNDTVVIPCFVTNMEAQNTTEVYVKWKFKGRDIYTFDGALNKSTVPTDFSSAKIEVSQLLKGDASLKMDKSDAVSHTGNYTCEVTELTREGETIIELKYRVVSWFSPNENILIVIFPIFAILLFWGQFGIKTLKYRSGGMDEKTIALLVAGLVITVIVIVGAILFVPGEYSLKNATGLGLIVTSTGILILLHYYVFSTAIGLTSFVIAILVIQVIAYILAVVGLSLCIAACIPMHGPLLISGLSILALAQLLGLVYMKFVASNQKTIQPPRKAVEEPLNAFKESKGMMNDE
T3 sequence (Q08722 19-139 limits assumed): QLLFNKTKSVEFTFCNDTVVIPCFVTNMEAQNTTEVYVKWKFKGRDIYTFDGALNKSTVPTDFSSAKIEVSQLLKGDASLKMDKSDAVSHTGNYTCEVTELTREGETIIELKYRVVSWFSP

B1: 9020-1RP-1C1 (bispecific antibody)
heavy: not shown
light: QIVLSQSPAILSASPGEKVTMTCRASSSVSYIHWFQQKPGSSPKPWIYATSNLASGVPVRFSGSGSGTSYSLTISRVEAEDAATYYCQQWTSNPPTFGGGTKLEIK
notes: not shown: light chain constant region of the CD20 antibody
As to B1, the binding result in experiment [1] and in experiment [2] was “binds” throughout.

B2: 9020-1RP-1C2 (bispecific antibody)
heavy: not shown
light: B1 light
notes: linker changed; not shown: light chain constant region of the CD20 antibody
Turning to B2, the binding result in experiment [1] and in experiment [2] was “binds” throughout.

B3: 9020-6RP (bispecific antibody)
heavy: QVQLQQPGAELVKPGASVKMSCKASGYTFTSYNMHWVKQTPGRGLEWIGAIYPGNGDTSYNQKFKGKATLTADKSSSTAYMQLSSLTSEDSAVYYCARSTYYGGDWYFNVWGAGTTVTVSA
light: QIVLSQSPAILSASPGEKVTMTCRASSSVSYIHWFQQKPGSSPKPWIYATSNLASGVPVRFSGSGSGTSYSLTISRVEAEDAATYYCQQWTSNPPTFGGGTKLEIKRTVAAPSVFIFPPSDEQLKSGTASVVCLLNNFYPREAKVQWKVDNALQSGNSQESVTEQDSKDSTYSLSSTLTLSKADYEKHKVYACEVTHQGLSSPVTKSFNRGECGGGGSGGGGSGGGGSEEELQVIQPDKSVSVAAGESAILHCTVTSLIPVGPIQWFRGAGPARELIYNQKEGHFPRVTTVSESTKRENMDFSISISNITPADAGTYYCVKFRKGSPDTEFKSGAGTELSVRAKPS
notes: Bispecific light chain co-transfected with the CD20 antibody heavy chain; not shown: IgG1 constant region
Take B3: in experiment [2], the binding result is “binds”.

B4: 重组蛋白CD002 (Fc fusion)
chain: EEELQVIQPDKSVSVAAGESAILHCTVTSLFPVGPIQWFRGAGPARELIYNQRQGPFPRVTTVSETTKRENMDFSISISAITPADAGTYYCVKFRKGSPDTEFKSGAGTELSVRAKPS
notes: Control recombinant protein; the format is not described; not shown: not described
B4: the binding result with hCD47-his is reported as “binds”.
